Consider two compounds from patent US12344890B2, “Process for cognate nucleotide detection in a nucleic acid sequencing workflow” (priority 2017, dated 2025).

For data set [1], the system named is Nc1ccn([C@H]2C[C@H](O)[C@@H](COP(=O)(O)OP(=O)(O)OP(=O)(O)O)O2)c(=O)n1. Nature of the data set: purified protein, by the assay type. Particulars: other: incorporation assay, Therminator DNA polymerase; averaged from three trials.
Data set [2] has as its system Nc1nc2c(ncn2[C@H]2C[C@H](O)[C@@H](COP(=O)(O)OP(=O)(O)OP(=O)(O)O)O2)c(=O)[nH]1. Description: purified protein, by the assay type. Particulars: other: incorporation assay, Therminator DNA polymerase; averaged from three trials.
In data set [3] the test system is Nc1ncnc2c1ncn2[C@H]1C[C@H](O)[C@@H](COP(=O)(O)OP(=O)(O)OP(=O)(O)O)O1. Nature of the data set: purified protein, by the assay type. The note with it: other: incorporation assay, Therminator DNA polymerase; averaged from three trials.
Data set [4] addresses T1, Therminator™ DNA polymerase (Thermococcus sp., UniProt Q56366, A485L/D141A/E143A).
T1 construct: purchased New England BioLabs
The class given is biochemical, Thermococcus species 9° N. Particulars: incorporation assay, averaged from three trials. The source says: Each nucleotide included a fluorescent moiety constructed on a Cy-5 scaffold. […] In the case of the labeled dUTP analog, the comparison was against dTTP.

T1 sequence (Q56366 whole entry D141A/E143A/A485L): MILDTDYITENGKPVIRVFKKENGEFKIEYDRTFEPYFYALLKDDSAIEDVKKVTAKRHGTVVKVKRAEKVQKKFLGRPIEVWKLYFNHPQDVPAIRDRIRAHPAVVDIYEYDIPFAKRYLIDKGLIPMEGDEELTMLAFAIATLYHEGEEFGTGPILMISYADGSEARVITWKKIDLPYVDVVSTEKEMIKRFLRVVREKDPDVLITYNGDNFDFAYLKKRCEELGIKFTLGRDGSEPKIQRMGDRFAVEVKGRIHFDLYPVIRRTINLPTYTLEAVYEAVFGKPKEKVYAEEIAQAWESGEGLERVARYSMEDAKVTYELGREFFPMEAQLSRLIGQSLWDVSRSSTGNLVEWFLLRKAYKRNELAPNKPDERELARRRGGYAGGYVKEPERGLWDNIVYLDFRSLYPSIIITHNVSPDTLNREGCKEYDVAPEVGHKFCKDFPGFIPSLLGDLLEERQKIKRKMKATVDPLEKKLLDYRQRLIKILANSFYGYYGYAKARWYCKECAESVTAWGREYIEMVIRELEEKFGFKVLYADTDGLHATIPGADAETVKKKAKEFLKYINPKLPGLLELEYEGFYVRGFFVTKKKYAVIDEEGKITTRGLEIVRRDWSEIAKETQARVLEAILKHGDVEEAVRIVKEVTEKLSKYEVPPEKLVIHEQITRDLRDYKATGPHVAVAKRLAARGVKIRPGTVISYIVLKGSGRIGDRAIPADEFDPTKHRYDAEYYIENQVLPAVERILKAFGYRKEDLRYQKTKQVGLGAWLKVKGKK

As for “Therminator™ DNA polymerase (Thermococcus sp. 9oN-7; A485L/D141A/E143A)”, the Km was found to be 0.82 µM in data set [1], 0.23 µM in data set [2] and 0.05 µM in data set [3].
As for `Cc1cn([C@H]2C[C@H](O)[C@@H](COP(=O)(O)OP(=O)(O)OP(=O)(O)O)O2)c(=O)[nH]c1=O` [dTTP, 2′-deoxythymidine-5′-triphosphate], the Km in data set [4] turned out to be 0.92 µM.
